The RNAGym collection of RNA variant scans (doi:10.1073/pnas.2313332121)

B1: TPR t1 (parent)
chain: GACCAAUCUGCCCUCAGAGCUCGAGAACAUCUUCGGAUGCAGAGGAGGCAGGCUUCGGUGGCGCGAUAGCGCCAACGUCCUCAACCUCCAAUGCAUCCCACCACAUGAUGAUGCCUGAAGAGCCUUGGUUUUUUG

Variants of: B1
Assay: polymerase ribozyme fitness, log enrichment relative to wild type (log ratio); higher = more active; in vitro selection for triplet polymerase activity
In short: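 Fitness measures genotype enrichment against wild-type enrichment on a logarithmic scale, with inverse-variance-weighted averaging of replicates. The logarithm is base 2, and genotypes were kept only with ≥10 input reads and ≥1 read per output in Illumina sequencing. The sequenced libraries came from one triplicate in vitro selection round, including frozen incubation at −7 °C, of PCR-built, transcribed mutant libraries of each subunit of a heterodimeric triplet polymerase ribozyme.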

Row | Variant | polymerase ribozyme fitness (log ratio)
1 | U9G C72U C86A | -0.508
2 | G10A C12A C102A | -2.74
3 | U9C G52A C89A G117A | -1.63
4 | U9A G63C A84U G120A | 0.752
5 | U9C C85G | -1.02
6 | U9G C40A C76U C114A | -2.63
7 | U9C G47U C49U U129A | -3.07
8 | U9G C97U A100C A108G | -2.87
9 | G10A C13U G61U | -0.325
10 | G10C | -0.497
11 | G10A | 0.148
12 | U9G C22G U81C | -3.31
13 | U9A A46G C85U U125A | -1.94
14 | U9G A18C G117A | 0.733
15 | U9A U55G C56G | -0.896
16 | U9A A84U A121C | 2.06
17 | U9A C64U G117A | 0.77
18 | G10A A84U G110U | -1.93
19 | U9C U125A | 0.386
20 | U9G G71U C88A C115A | -2.67
21 | U9G C15A C70G A111U G117C | -5.91

Row | Variant | polymerase ribozyme fitness (log ratio)
22 | G10C A83U | -1.28
23 | U9A A83U | 0.0435
24 | U9G A103U U126A G127C | -5.16
25 | G10C A43U C62A C114U U116C U133G | -6.43
26 | G10A A37U G47C U112C U131A | -0.391
27 | U9C A43G C89U | -0.469
28 | U9A A18G C82U C115U | -3.35
29 | C8U U96G G110U | -2.02
30 | U9G C20A U131A | -1.99
31 | U9G G65C G69C | -5.37
32 | G10A G120U G135C | 1.62
33 | U9C A26G C34A G39A C97A C115A A121G | -1.6
34 | U9A C53U | 0.789
35 | U9A A100U | 0.21
36 | G10A U133G | -0.322
37 | G10A G42A G44A C72U | -1.94
38 | U9A C34U A37C A46U C56U G107C C114U G122A G127C | -7.05
39 | U9A A37U | 0.568
40 | U9G C73U G113A | -0.47
41 | U9A C22U | -3.34
42 | U9C U32C U109G | -6.53

Row | Variant | polymerase ribozyme fitness (log ratio)
43 | U9G U55A | -0.0521
44 | U9G G48A U81A C89A G93U C115G C123G | -6.43
45 | U9G G57U U96A U112A | 0.146
46 | C8U G63A C102A U106C G113A U130G | -5.25
47 | G10A G63A U130G | -0.867
48 | C8U G60C G61C C72A C101U | -1.33
49 | U9C G19C C70U | -3.22
50 | U9G G48U C49U G69U G120U | 0.977
51 | U9A G39C | -0.517
52 | U9G C12G G93C | -0.487
53 | G10A G42U | -1.32
54 | U9G C11U G35U G69U C89U | -3.13
55 | U9A G39C C62A U78A U87G G110U | -5.8
56 | U9G G10U | 0.261
57 | U9G G10C | 0.723
58 | U9A C13U G63A C88A G113C U129G U134G | -3.06
59 | U9A G69U | 0.755
60 | G10A U21G G52A G69C U78G C115G U133G | -7.23
61 | U9C A27G C56A U92A | -3.57
62 | U9C A50U C94U | -2.36
63 | U9C A37U A66C | -1.35

Row | Variant | polymerase ribozyme fitness (log ratio)
64 | U9G A16G C73G G110A U132A | -2.97
65 | G10A G52A G60A C79A C115A U132A | -1.53
66 | U9A C73G G117A | 0.428
67 | U9C A41C G52A C98U U130G | -2.71
68 | U9G C28G A111C G122A | -4.22
69 | G10A G48C U54A C94U G110U A121C C123G | -1.01
70 | U9G G57U | -0.376
71 | U9A A75U U96G | -0.383
72 | U9G C28U G61U C72G U87A G122A | -1.55
73 | U9A A29U G36C G44U C72A A84G | -3.62
74 | U9C G52A C104U A121U | 2.1
75 | C8U U33A | -3.59
76 | G10A C15U | -2.8
77 | G10A G47U C56U C82A A83G | -2.51
78 | U9G C56U | -0.823
79 | U9G C13G C53G C56U C86U A111U | -2.52
80 | U9G G52A U112C | 1.21
81 | U9C U133G | 0.11
82 | G10A C70G U87A C123A | -4.27
83 | U9C C12U A16G C49G | 0.31
84 | U9C C28U G36U A121G | 0.0298
